Measured values as given in the supplement of paper PMC9112550, “Optimization of the antimicrobial peptide Bac7 by deep mutational scanning” (BMC Biology, 2022).

Tested on: Escherichia coli TOP10
Experiment: shrunken log2 fold change of peptide-encoding DNA abundance (4.5 h post-induction vs induction); higher = less antimicrobial activity (less host growth inhibition)
Conditions: time post-induction: 4.5 h; library: site-saturation at positions 5, 18, 19, 20
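Further: peptides expressed intracellularly from a pBAD plasmid library in pooled LB shake-flask culture, induced with 0.3% L-arabinose, DNA abundance read by NGS, three biological replicates, DESeq2 with apeglm shrinkage.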

| Sequence | shrunken log2 fold change |
| --- | --- |
| RRIRWRPPRLPRPRPRPQKKPRP | 0.0854 |
| RRIRTRPPRLPRPRPRPSEVPRP | 0.0146 |
| RRIRWRPPRLPRPRPRPFVMPRP | -1.01 |
| RRIRIRPPRLPRPRPRPWQYPRP | -0.0758 |
| RRIRNRPPRLPRPRPRPKYNPRP | -0.901 |
| RRIRWRPPRLPRPRPRPMPSPRP | -0.116 |
| RRIRERPPRLPRPRPRPRIEPRP | -0.0877 |
| RRIRARPPRLPRPRPRPRTPPRP | 0.636 |
| RRIRNRPPRLPRPRPRPNRSPRP | -0.165 |
| RRIRQRPPRLPRPRPRPLNMPRP | -0.423 |
| RRIRARPPRLPRPRPRPPPEPRP | 1.24 |
| RRIRLRPPRLPRPRPRPVDPPRP | -0.0136 |
| RRIRSRPPRLPRPRPRPVFYPRP | -0.266 |
| RRIRQRPPRLPRPRPRPGEEPRP | 0.0331 |
| RRIRSRPPRLPRPRPRPVLCPRP | -0.00306 |
| RRIRQRPPRLPRPRPRPDYMPRP | -0.453 |
| RRIRCRPPRLPRPRPRPDTAPRP | -0.051 |
| RRIRNRPPRLPRPRPRPVAHPRP | -0.0475 |
| RRIRCRPPRLPRPRPRPCVVPRP | -0.474 |
| RRIRHRPPRLPRPRPRPQLCPRP | 0.0716 |
| RRIRQRPPRLPRPRPRPGEGPRP | 0.00168 |
| RRIRPRPPRLPRPRPRPMSDPRP | -0.195 |
| RRIRCRPPRLPRPRPRPNTTPRP | -0.291 |
| RRIRHRPPRLPRPRPRPPKRPRP | -0.142 |
| RRIRSRPPRLPRPRPRPRCDPRP | 0.144 |

| Sequence | shrunken log2 fold change |
| --- | --- |
| RRIRQRPPRLPRPRPRPGFSPRP | 0.00737 |
| RRIRFRPPRLPRPRPRPWIVPRP | -0.242 |
| RRIRARPPRLPRPRPRPYFNPRP | -0.71 |
| RRIRCRPPRLPRPRPRPYAIPRP | -0.803 |
| RRIRMRPPRLPRPRPRPQQMPRP | -0.0302 |
| RRIRHRPPRLPRPRPRPNQPPRP | 0.00401 |
| RRIRQRPPRLPRPRPRPASMPRP | -0.39 |
| RRIRDRPPRLPRPRPRPIYPPRP | -1.42 |
| RRIRARPPRLPRPRPRPYKIPRP | -0.455 |
| RRIRGRPPRLPRPRPRPVPPPRP | 1.17 |
| RRIRCRPPRLPRPRPRPNHMPRP | -0.255 |
| RRIRFRPPRLPRPRPRPCSTPRP | -0.177 |
| RRIRFRPPRLPRPRPRPPHCPRP | 0.362 |
| RRIRRRPPRLPRPRPRPDLTPRP | 0.521 |
| RRIRDRPPRLPRPRPRPVECPRP | 0.018 |
| RRIRHRPPRLPRPRPRPASHPRP | 0.0269 |
| RRIRERPPRLPRPRPRPDQEPRP | -0.0156 |
| RRIRPRPPRLPRPRPRPLMDPRP | -0.145 |
| RRIRQRPPRLPRPRPRPDCKPRP | -0.0311 |
| RRIRHRPPRLPRPRPRPPFQPRP | 0.0923 |
| RRIRYRPPRLPRPRPRPFVLPRP | -0.855 |
| RRIRERPPRLPRPRPRPGLWPRP | 0.168 |
| RRIRKRPPRLPRPRPRPKFCPRP | 0.0649 |
| RRIRTRPPRLPRPRPRPGNMPRP | -0.0393 |
| RRIRERPPRLPRPRPRPFHRPRP | -0.182 |

| Sequence | shrunken log2 fold change |
| --- | --- |
| RRIRNRPPRLPRPRPRPIVDPRP | -0.139 |
| RRIRSRPPRLPRPRPRPEGYPRP | -0.0595 |
| RRIRYRPPRLPRPRPRPYCAPRP | -0.899 |
| RRIRQRPPRLPRPRPRPNHTPRP | -0.0975 |
| RRIRRRPPRLPRPRPRPDVCPRP | -0.000628 |
| RRIRRRPPRLPRPRPRPIGAPRP | 0.435 |
| RRIRRRPPRLPRPRPRPDWIPRP | -0.223 |
| RRIRERPPRLPRPRPRPHRQPRP | -0.0179 |
| RRIRARPPRLPRPRPRPPARPRP | 0.874 |
| RRIRWRPPRLPRPRPRPVDTPRP | 0.00157 |
| RRIRFRPPRLPRPRPRPGPRPRP | 0.618 |
| RRIRQRPPRLPRPRPRPAHGPRP | 0.19 |
| RRIRRRPPRLPRPRPRPSEKPRP | 0.51 |
| RRIRHRPPRLPRPRPRPTKYPRP | -0.345 |
| RRIRPRPPRLPRPRPRPRNQPRP | 0.00569 |
| RRIRPRPPRLPRPRPRPMFKPRP | -0.0861 |
| RRIRTRPPRLPRPRPRPQVSPRP | -0.0699 |
| RRIRGRPPRLPRPRPRPFDNPRP | 0.23 |
| RRIRERPPRLPRPRPRPWFNPRP | -0.599 |
| RRIRQRPPRLPRPRPRPWKEPRP | -0.103 |
| RRIRVRPPRLPRPRPRPACVPRP | -0.0412 |
| RRIRQRPPRLPRPRPRPDMRPRP | 0.0308 |
| RRIRHRPPRLPRPRPRPLDCPRP | -0.384 |
| RRIRVRPPRLPRPRPRPPGQPRP | 0.266 |
| RRIRMRPPRLPRPRPRPSNKPRP | 0.0232 |

| Sequence | shrunken log2 fold change |
| --- | --- |
| RRIRLRPPRLPRPRPRPRSLPRP | 0.0255 |
| RRIRARPPRLPRPRPRPYYHPRP | -1.02 |
| RRIRPRPPRLPRPRPRPIGKPRP | -0.156 |
| RRIRTRPPRLPRPRPRPDKWPRP | 0.0238 |
| RRIRWRPPRLPRPRPRPINGPRP | -0.0517 |
| RRIRLRPPRLPRPRPRPFIPPRP | -0.355 |
| RRIRFRPPRLPRPRPRPHNCPRP | -0.3 |
| RRIRWRPPRLPRPRPRPRLYPRP | 0.245 |
| RRIRTRPPRLPRPRPRPDMAPRP | -0.0628 |
| RRIRLRPPRLPRPRPRPFQQPRP | 0.0873 |
| RRIRTRPPRLPRPRPRPPMNPRP | -0.399 |
| RRIRSRPPRLPRPRPRPICKPRP | -0.494 |
| RRIRLRPPRLPRPRPRPKMDPRP | -0.428 |
| RRIRDRPPRLPRPRPRPTYIPRP | -0.393 |
| RRIRIRPPRLPRPRPRPKHQPRP | -0.495 |
| RRIRLRPPRLPRPRPRPAPEPRP | 0.109 |
| RRIRERPPRLPRPRPRPPHIPRP | -0.366 |
| RRIRLRPPRLPRPRPRPEYSPRP | -0.279 |
| RRIRWRPPRLPRPRPRPWLNPRP | -0.227 |
| RRIRTRPPRLPRPRPRPFVLPRP | -0.296 |
| RRIRDRPPRLPRPRPRPIRCPRP | -0.0116 |
| RRIRHRPPRLPRPRPRPKIHPRP | -0.393 |
| RRIRCRPPRLPRPRPRPRISPRP | -0.248 |
| RRIRARPPRLPRPRPRPMDMPRP | -0.128 |
| RRIRFRPPRLPRPRPRPNRLPRP | -0.121 |

| Sequence | shrunken log2 fold change |
| --- | --- |
| RRIRHRPPRLPRPRPRPYNQPRP | -0.342 |
| RRIRIRPPRLPRPRPRPYPEPRP | -0.0522 |
| RRIRARPPRLPRPRPRPDTGPRP | -0.0932 |
| RRIRWRPPRLPRPRPRPQIEPRP | 0.0601 |
| RRIRSRPPRLPRPRPRPEFKPRP | 0.00218 |
| RRIRCRPPRLPRPRPRPYKMPRP | -1.66 |
| RRIRDRPPRLPRPRPRPIAWPRP | 0.0633 |
| RRIRSRPPRLPRPRPRPNLIPRP | -0.74 |
| RRIRMRPPRLPRPRPRPICAPRP | 0.486 |
| RRIRMRPPRLPRPRPRPTYMPRP | -0.131 |
| RRIRSRPPRLPRPRPRPFHVPRP | -0.108 |
| RRIRIRPPRLPRPRPRPGRSPRP | 0.0764 |
| RRIRPRPPRLPRPRPRPKHYPRP | -0.529 |
| RRIRHRPPRLPRPRPRPPSRPRP | 0.17 |
| RRIRCRPPRLPRPRPRPFMNPRP | -0.00951 |
| RRIRGRPPRLPRPRPRPCHAPRP | 0.274 |
| RRIRARPPRLPRPRPRPGPYPRP | 1.85 |
| RRIRTRPPRLPRPRPRPKFRPRP | -0.204 |
| RRIRMRPPRLPRPRPRPLTLPRP | -0.1 |
| RRIRLRPPRLPRPRPRPYCLPRP | -0.303 |
| RRIRDRPPRLPRPRPRPCPIPRP | -0.00104 |
| RRIRHRPPRLPRPRPRPIKIPRP | -0.62 |
| RRIRDRPPRLPRPRPRPYKGPRP | -0.00133 |
| RRIRMRPPRLPRPRPRPKMKPRP | 1.45 |
| RRIRGRPPRLPRPRPRPICWPRP | 0.714 |

| Sequence | shrunken log2 fold change |
| --- | --- |
| RRIRPRPPRLPRPRPRPEDCPRP | -0.0873 |
| RRIRWRPPRLPRPRPRPAYCPRP | -0.0978 |
| RRIRGRPPRLPRPRPRPFWTPRP | 0.0497 |
| RRIRSRPPRLPRPRPRPESAPRP | 0.278 |
| RRIRQRPPRLPRPRPRPTYDPRP | -0.338 |
| RRIRMRPPRLPRPRPRPYGKPRP | -0.0311 |
| RRIRFRPPRLPRPRPRPWRCPRP | 0.174 |
| RRIRKRPPRLPRPRPRPLSHPRP | 0.131 |
| RRIRPRPPRLPRPRPRPKDHPRP | 0.0743 |
| RRIRYRPPRLPRPRPRPRAEPRP | -0.162 |
| RRIRNRPPRLPRPRPRPSCKPRP | 0.065 |
| RRIRDRPPRLPRPRPRPEGSPRP | 1.06 |
| RRIRQRPPRLPRPRPRPGYSPRP | -0.00603 |
| RRIRFRPPRLPRPRPRPNNHPRP | -0.571 |
| RRIRKRPPRLPRPRPRPTKRPRP | 0.697 |
| RRIRHRPPRLPRPRPRPAGAPRP | 0.199 |
| RRIRDRPPRLPRPRPRPLNFPRP | -0.139 |
| RRIRGRPPRLPRPRPRPPMFPRP | 0.295 |
| RRIRSRPPRLPRPRPRPTVTPRP | 0.166 |
| RRIRSRPPRLPRPRPRPRELPRP | 0.0421 |
| RRIRHRPPRLPRPRPRPLYYPRP | -0.611 |
| RRIRERPPRLPRPRPRPDETPRP | -0.015 |
| RRIRWRPPRLPRPRPRPMTGPRP | 0.019 |
| RRIRRRPPRLPRPRPRPGQFPRP | 0.0178 |
| RRIRTRPPRLPRPRPRPKQTPRP | 0.204 |
